target: human factor Xa (human)
Sequence (P00742 41-488): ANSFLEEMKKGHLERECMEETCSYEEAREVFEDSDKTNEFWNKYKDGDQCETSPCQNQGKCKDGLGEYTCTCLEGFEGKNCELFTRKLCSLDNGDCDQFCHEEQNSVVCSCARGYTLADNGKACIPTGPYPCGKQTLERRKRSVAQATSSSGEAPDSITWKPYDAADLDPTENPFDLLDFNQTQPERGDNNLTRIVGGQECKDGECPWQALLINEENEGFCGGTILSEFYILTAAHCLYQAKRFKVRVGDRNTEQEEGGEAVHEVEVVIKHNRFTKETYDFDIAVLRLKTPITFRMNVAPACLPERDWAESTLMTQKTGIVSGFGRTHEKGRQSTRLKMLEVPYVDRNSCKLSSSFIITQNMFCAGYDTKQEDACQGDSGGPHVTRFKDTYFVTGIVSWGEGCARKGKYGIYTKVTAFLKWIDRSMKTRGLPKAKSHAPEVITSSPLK

Row | second-order rate constant of factor Xa inhibition (kapp), with pentasaccharide | Substance
1 | 194000 M⁻¹ s⁻¹ | S137A/S380C antithrombin (from UniProt P01008 33-464) (natural protein)
2 | 664000 M⁻¹ s⁻¹ | S137A/V375C antithrombin (from UniProt P01008 33-464) (natural protein)
3 | 331 M⁻¹ s⁻¹ | S137A/V375C/S380C antithrombin (from UniProt P01008 33-464) (natural protein)
4 | 756000 M⁻¹ s⁻¹ | recombinant beta-glycoform S137A antithrombin (from UniProt P01008 33-464) (natural protein)
